Results published in US20140086916A1 (Merck Sharp & Dohme, published 2014).
Several values for one entry are separate records, joined by “and”; a condition that tells them apart may be missing. Equal values may be shown once. Read-outs that look alike come from different tables or passages of the source.

T1: FcγRIIb (Pichia pastoris produced) (UniProt P31994 43-217, limits assumed)
T1 construct: also called FcgRIIB; CD32B
T1 sequence (looked up): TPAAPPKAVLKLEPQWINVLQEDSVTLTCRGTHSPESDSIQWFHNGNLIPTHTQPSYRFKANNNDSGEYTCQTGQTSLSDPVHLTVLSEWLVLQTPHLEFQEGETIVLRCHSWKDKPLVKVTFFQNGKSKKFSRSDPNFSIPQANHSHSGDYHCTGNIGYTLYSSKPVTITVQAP

T2: FcγRIIA H (UniProt P12318 34-217, limits assumed)
T2 construct: also called FcgRIIA H
T2 sequence (looked up): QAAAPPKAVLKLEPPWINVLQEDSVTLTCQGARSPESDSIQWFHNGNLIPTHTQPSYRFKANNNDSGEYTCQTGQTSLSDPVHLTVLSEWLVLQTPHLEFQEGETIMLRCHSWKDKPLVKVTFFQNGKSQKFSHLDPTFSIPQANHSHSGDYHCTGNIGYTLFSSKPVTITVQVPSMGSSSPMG


Key:
[1] = target: T3, FcγRIIIa-V158 (Pichia pastoris produced) (UniProt P08637 17-208, limits assumed); assay: fold change of the Table 12 affinities; Table 13 fold change computed from the Table 12 affinities
T3 construct: also called FcγRIIIA LV; FcgRIIIA LV
T3 sequence (P08637 17-208 F176V limits assumed): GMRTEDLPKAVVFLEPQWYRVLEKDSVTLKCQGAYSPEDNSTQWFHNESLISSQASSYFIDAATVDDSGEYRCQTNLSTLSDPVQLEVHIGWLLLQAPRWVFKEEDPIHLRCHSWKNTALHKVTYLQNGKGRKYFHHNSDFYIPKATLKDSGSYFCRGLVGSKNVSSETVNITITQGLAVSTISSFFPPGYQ
Experimental: (§1) Fcγ receptor binding assays were carried out as described (Shields, et al. (2001) J. Biol. Chem. 276:6591-6604) with minor modifications. High protein binding 96-well plates (Corning Costar) were coated with 100 μL per well of Fcγ receptor solutions in PBS at the following concentrations: 1 μg/mL for both FcγRI (R&D Systems) and FcγRIIa (Pichia pastoris produced), 2 μg/mL for FcγRIIb (P. pastoris produced), 0.8 μg/mL for FcγRIIIa-F158, and 0.4 μg/mL for FcγRIIIa-V158 (both P. pastoris produced). All Pichia pastoris produced receptors were expressed and purified as described (Li, et al. (2006) Nature Biotechnology 24:210-215). Monomeric antibody samples added to the FcγRI plate were serially diluted in assay diluent (1×PBS, 1% BSA, and 0.05% Tween20) and 100 μL, per well was added to the plate. Antibody samples prepared for the remaining receptors require a one hour dimerization step with half molar ratio of goat anti-human IgG F(ab′)2 F(ab′)2 that is conjugated with alkaline phosphatase for detection. […] FcγRI bound sample antibody was detected using the same goat anti-human IgG F(ab′)2 alkaline phosphatase conjugated F(ab′)2. Sample antibody binding was quantified by measuring excitation at 340 nm and emission at 465 nm after 18 hour incubation with SuperPhos, 4-MUP Fluorescence AP Substrate Detection System (Virolabs).

[2] = target: T1, FcγRIIb (Pichia pastoris produced); assay: ELISA-type plate assay, FcγR coated, antibody dimerized with AP-conjugated goat anti-human IgG F(ab')2, RFU readout
Experimental: (§2) Fcγ receptor binding assays were carried out as described (Shields, et al. (2001) J. Biol. Chem. 276:6591-6604) with minor modifications. High protein binding 96-well plates (Corning Costar) were coated with 100 μL per well of Fcγ receptor solutions in PBS at the following concentrations: 1 μg/mL for both FcγRI (R&D Systems) and FcγRIIa (Pichia pastoris produced), 2 μg/mL for FcγRIIb (P. pastoris produced), 0.8 μg/mL for FcγRIIIa-F158, and 0.4 μg/mL for FcγRIIIa-V158 (both P. pastoris produced). All Pichia pastoris produced receptors were expressed and purified as described (Li, et al. (2006) Nature Biotechnology 24:210-215). Monomeric antibody samples added to the FcγRI plate were serially diluted in assay diluent (1×PBS, 1% BSA, and 0.05% Tween20) and 100 μL, per well was added to the plate. Antibody samples prepared for the remaining receptors require a one hour dimerization step with half molar ratio of goat anti-human IgG F(ab′)2 F(ab′)2 that is conjugated with alkaline phosphatase for detection. These dimerized F(ab′)2/antibody complexes were also serially diluted and 100 μL per well were added to the remaining receptor plates and all plates were incubated for one hour at room temperature. FcγRI bound sample antibody was detected using the same goat anti-human IgG F(ab′)2 alkaline phosphatase conjugated F(ab′)2. Sample antibody binding was quantified by measuring excitation at 340 nm and emission at 465 nm after 18 hour incubation with SuperPhos, 4-MUP Fluorescence AP Substrate Detection System (Virolabs).

wild-type human PCSK9 = target: T4, wild-type human PCSK9 (human, UniProt Q8NBP7 31-692, limits assumed); assay: SPR (Biacore T100), average KD of the six YGLY25267 runs
T4 construct: also called PCSK9 antigen
Experimental: The CM5 chip was immobilized on all flowcells with mouse anti-human IgG (Fc specific) according to the Biacore Human Antibody Capture Kit (Cat# BR-1008-39) to ˜7000RU. Anti-PCSK9 antibodies were captured on the chip to ˜500RU followed by analyte injections of wild-type human PCSK9 from 64.1 nM to 2.0 nM. Each flowcell was regenerated between each analyte injection with 3M MgCl for 40 seconds at 10 uL/min. Data was analyzed with Biacore T100 Evaluation Software using the 1:1 binding model using at least 5 point concentration range sensogram.

[3] = target: T3, FcγRIIIa-V158 (Pichia pastoris produced); assay: FcγR affinity assay 'as described in Example 7', n = 3; printed as Affinity (nM) ± STDEV; footnote: values > ~5000 nM mean a poor binder; Table 12 affinity (nM) assay, n = 3; value outside the tested concentration range
Experimental: as §1

[4] = target: T5, FcγRIIIa-F158 (Pichia pastoris produced) (UniProt P08637 17-208, limits assumed); assay: as above
T5 construct: also called FcγRIIIA LF; FcgRIIIA LF
T5 sequence (P08637 17-208 limits assumed): as the sequence (P08637 17-208 F176V limits assumed) above, with V160F counted along it
Experimental: as §1

[5] = target: T1, FcγRIIb (Pichia pastoris produced); assay: fold change of the Table 12 affinities
Experimental: as §2

FcγRIIA H [6] = target: T2, FcγRIIA H; assay: fold change of the Table 12 affinities (arrow not given)
Experimental: as §1

[7] = target: T1, FcγRIIb (Pichia pastoris produced); assay: ELISA-type plate assay, FcγR coated, antibody dimerized with AP-conjugated goat anti-human IgG F(ab')2, RFU readout; remark: listed apart in the source
Experimental: as §2

[8] = target: T1, FcγRIIb (Pichia pastoris produced); assay: FcγR affinity assay 'as described in Example 7', n = 3; printed as Affinity (nM) ± STDEV
Experimental: as §2

FcγRIIA H [9] = target: T2, FcγRIIA H; assay: FcγR affinity assay 'as described in Example 7', n = 3; printed as Affinity (nM) ± STDEV; footnote: values > ~5000 nM mean a poor binder
Experimental: as §2

[10] = target: T1, FcγRIIb (Pichia pastoris produced); assay: ELISA-type plate assay, FcγR coated, antibody dimerized with AP-conjugated goat anti-human IgG F(ab')2, RFU readout; remark: listed apart in the source
Experimental: as §2

[11] = target: T5, FcγRIIIa-F158 (Pichia pastoris produced); assay: fold change of the Table 12 affinities (arrow not given); Table 13 fold change computed from the Table 12 affinities
Experimental: as §1

[12] = target: T1, FcγRIIb (Pichia pastoris produced); assay: ELISA-type plate assay, FcγR coated, antibody dimerized with AP-conjugated goat anti-human IgG F(ab')2, RFU readout; remark: listed apart in the source
Experimental: as §2

FcγRIIA H [13] = target: T2, FcγRIIA H; assay: fold change of the Table 12 affinities
Experimental: as §2

[14] = target: T5, FcγRIIIa-F158 (Pichia pastoris produced); assay: fold change of the Table 12 affinities
Experimental: as §2

[15] = target: T3, FcγRIIIa-V158 (Pichia pastoris produced); assay: FcγR affinity assay 'as described in Example 7', n = 3; printed as Affinity (nM) ± STDEV; footnote: values > ~5000 nM mean a poor binder
Experimental: as §2

[16] = target: T5, FcγRIIIa-F158 (Pichia pastoris produced); assay: as above
Experimental: as §2

| fold change in affinity vs 1F11 IgG1 GS5.0 [1] [fold] | EC50 (read off the curve) [2] [mg/L] | Kd (wild-type human PCSK9) [µM] | Kd [3] [µM] | Kd [4] [µM] | fold change in affinity vs 1F11 IgG1 GS5.0 [5] [fold] | fold change in affinity vs 1F11 IgG1 GS5.0 (FcγRIIA H [6]) [fold] | EC50 (read off the curve) [7] [mg/L] | Kd [8] [µM] | Kd (FcγRIIA H [9]) [µM] | EC50 (read off the curve) [10] [mg/L] | fold change in affinity vs 1F11 IgG1 GS5.0 [11] [fold] | EC50 (read off the curve) [12] | fold change in affinity vs hFcDM [5] [fold] | fold change in affinity vs hFcDM (FcγRIIA H [13]) [fold] | fold change in affinity vs hFcDM [14] [fold] | Kd [15] [µM] | Kd [16] [µM] | Binder |
| --- | --- | --- | --- | --- | --- | --- | --- | --- | --- | --- | --- | --- | --- | --- | --- | --- | --- | --- |
| > 10000 | ~0.05 | 0.00364 | > 5 | > 5 | 19 | 9 | ~0.03 | 0.029 | 8.15 | ~0.04 | 103 | ~0.04 mg/L and ~0.1 mg/L |  |  |  |  |  | 1F11 IgG1 F243A/V264A/S267E/L328F quadruple mutein anti-PCSK9 antibody (antibody, Produced in Pichia pastoris GFI6.0; The strains give the same polypeptide with different N-glycan profiles; also called 1F11 QM; YGLY25265) heavy: QVQLVQSGAEVKKPGASVKVSCKVSGYTFTDYYMNWVRQAPGQGLEWIGDINPNNGGAIYNQKFKGRATLTVDKSTSTAYMELRSLRSDDTAVYYCTSGIITEIAEDFWGQGTLVTVSSASTKGPSVFPLAPSSKSTSGGTAALGCLVKDYFPEPVTVSWNSGALTSGVHTFPAVLQSSGLYSLSSVVTVPSSSLGTQTYICNVNHKPSNTKVDKKVEPKSCDKTHTCPPCPAPELLGGPSVFLAPPKPKDTLMISRTPEVTCVVADVEHEDPEVKFNWYVDGVEVHNAKTKPREEQYNSTYRVVSVLTVLHQDWLNGKEYKCKVSNKAFPAPIEKTISKAKGQPREPQVYTLPPSRDELTKNQVSLTCLVKGFYPSDIAVEWESNGQPENNYKTTPPVLDSDGSFFLYSKLTVDKSRWQQGNVFSCSVMHEALHNHYTQKSLSLSPG light: DIQMTQSPSSLSASVGDRVTITCKASQNVGTNVVWYQQKPGKAPKALIHSASYRYSGVPSRFSGSGSGTDFTLTISSLQPEDFATYYCQQYKTYPYTFGQGTKVEIKRTVAAPSVFIFPPSDEQLKSGTASVVCLLNNFYPREAKVQWKVDNALQSGNSQESVTEQDSKDSTYSLSSTLTLSKADYEKHKVYACEVTHQGLSSPVTKSFNRGEC |
|  |  |  |  |  |  |  |  | 0.028 | 9.13 |  |  |  | 100 | 1 | 9 | 6.4 | 30.6 | human IgG1 Fc ("hFc") QM (F243A/V264A/S267E/L328F quadruple mutein Fc domain) (other, Fc fragment of human IgG1 with hinge, produced in Pichia pastoris GFI6.0 host YGLY22834; also called YGLY28722; YGLY28725) AEPKSCDKTHTCPPCPAPELLGGPSVFLAPPKPKDTLMISRTPEVTCVVADVEHEDPEVKFNWYVDGVEVHNAKTKPREEQYNSTYRVVSVLTVLHQDWLNGKEYKCKVSNKAFPAPIEKTISKAKGQPREPQVYTLPPSRDELTKNQVSLTCLVKGFYPSDIAVEWESNGQPENNYKTTPPVLDSDGSFFLYSKLTVDKSRWQQGNVFSCSVMHEALHNHYTQKSLSLSPGK |
